Assay results published in the DeepSol protein solubility set.

Experiment: soluble on expression in E. coli; label from the status in PepcDB or PDB records

Row | Sequence | soluble on expression in E. coli
1 | MQSKTAKLPDNDRNRPLIQTFNDAQQKVWFDDALLHEDPSQCCNPEFWQQNGKVLGSATGRGTTWFVQLQQTQGALRHYRRGGLFGKLVADSYWFTGWEKTRSYQEFMLLNHLRDAGVNVPRPIAARVQKHGLLYKADLLSEKVPNARDLVSILQESPISDELYRKIGREIRKMHDAQVNHTDLNIHNILIDDQEKVWIIDFDKCYVQIGDSWKQGNLKRLKRSFEKEVCKRGINWSLEAFAIISSYKHEE | not soluble
2 | MITIDLHTHTSHSHGQATVQEMFEAGCARGLLVHGFSEHSPRPSGYDYPKDYRDKLTRSFPDYVEQVRTLAATYAPERTVLLGLEMDWLPGQEPFIDATIHRYDYDYVIGGIHFLGTWGFDYTPDDWQGFSPEQTADIYVRYFESLRRMAASGMFDIAAHPDIIKIFSAAAFHDWLATDKAKAVVRDALETMHTAGMAMEISSAGLRKPCKEIYPCPDIMRMAADIGLPVTFGSDAHCVNTIGWGFDTLADYARGFGYTRSVWMRRGERFERPFLEHHHHHH | soluble
3 | MADKREPAPGWPILKGEYEVGDVKNSVLVITCGSHLPGKPILDAGAACTGSCKTENLGIEKVVAHIISNPNIRYLLVTGSEVKGHITGQSMMSLHANGVKENRIAGALGAIPYVENLNAAAVARFQEQVQVVNLLDTEDMGAITSKVRELASKDPGAFDADPLVVEISEEGEEEEEGGVVRPVSGEIAVLRSRLKAIEARMMDI | not soluble
4 | MREIVHVQAGQCGNQIGAKFWEVISDEHGIQPDGTYKGESDLQLERINVYYNEANGGKYVPRAVLVDLEPGTMDSVRSGPFGQLFRPDNFVFGQSGAGNNWAKGHYTEGAELVDNVLDVVRKEAEGCDCLQGFQLTHSLGGGTGSGMGTLLISKIREEYPDRIMSSFSVVPSPKVSDTVVEPYNATLSVHQLVENTDETFCIDNEALYDICFRTLKLSNPTYGDLNHLVSVTMSGVTTCLRFPGQLNADLRKLAVNMVPFPRLHFFMPGFAPLSAKGAQAYRALTVAELTQQMFDAKNMMAACDPRHGRYLTVAAMFRGRMSMREVDDQMMNVQNKNSSYFVEWIPNNVKTAVCDIPPRGLKMSATFIGNSTAIQELFKRISEQFTAMFRRKAFLHWYTGEGMDEMEFTEAESNMNDLVSEYQQYQEATAEEDGELDGTDGDAE | not soluble
5 | KKLLLIGAGRISYYLLNILKNNRIKVKLIEQKMDRAQTFSQVFPEVSVILGDGTAKDLLLEESAASYDAVATLTGVDEENIITSMFLESLGVHKNITKVNRTSLLEIVDTRETTTIVTPKSIAVDTVMHFVRGHYNA | not soluble
6 | MQVHSGETEILRKAVEDYFCFCYGKALGTTVMVPVPYEKMLRDQSAVVVQGLPEGVAFQHPENYDLATLKWILENKAGISFIINRPFLGPESQLGGPGMVTDAERSIVSPSESCGPINVKTEPMEDSGISLKAEAVSVKKESEDPNYYQYNMQGSHPSSTSNEVIEMELPMEDSTPLVPSEEPNEDPEAEVKIEGNTNSSSVTNSAAGVEDLNIVQVTVPDNEKERLSSIEKIKQLREQVNDLFSRKFGEAIGVDFPVKVPYRKITFNPGCVVIDGMPPGVVFKALGYLEISSMRRILEAAEFIKFTVIRPLPGLELSNVGKRKIDQEGRVFQEKWERAYFFVEVQNIPTCLICKQSMSVSKEYNLRRHYQTNHSKHYDQYTERMRDEKLHELKKGLRKYLLGSSDTECPEQKQVFANPSPTQKSPVQPVEDLAGNLWEKLREKIRSFVAYSIAIDEITDINNTTQLAIFIRGVDENFDVSEELLDTVPMTGTKSGNEIFLRVEKSLKKFCINWSRLVSVASTGTPAMVDANNGLVTKLKSRVATFCKGAELKSICCIIHPESLCAQKLKMDHVMDVVVKSVNWICSRGLNHSEFTTLLYELDSQYGSLLYYTEIKWLSRGLVLKRFFESLEEIDSFMSSRGKPLPQLSSIDWIRDLAFLVDMTMHLNALNISLQGHSQIVTQMYDLIRAFLAKLCLWETHLTRNNLAHFPTLKLVSRNESDGLNYIPKIAELKTEFQKRLSDFKLYESELTLFSSPFSTKIDSVHEELQMEVIDLQCNTVLKTKYDKVGIPEFYKYLWGSYPKYKHHCAKILSMFGSTYICEQLFSIMKLSKTKYCSQLKDSQWDSVLHIAT | soluble
7 | SGSNETLPDNFGKGGWKICFKIEPPATLGNGMLKISFHSDYNRKPHPDDIVEETIKDMWKRRKEVNPKMWNALKFRVDSYSTFHAQGASVVKLNLGLTDYASYQGSGSLASPLTFFQSPEEGAPERHLPLSLGNAGIVLTSDNFIILLERSEQVGEGVGRWVLPGGHPEPSHVNIPDSYLTQSYEGTRDMCLTIERELYNSILMEITEEVGLRSSELFTLQLLGMVQRERDKRPVLVGHTRTTLSKSEMEARFCCQRIHTEACRILFCDIRQVETFFQENEQIMPEHRGALQLYFESSVCQQDWKLCKE | soluble
8 | MQNTIIQKAVNKDLNSILEITKDALNAMKTMNFHQWDENYPNEIVFQEDIQAQELYVFKENDEILGFICINEKFKPEFYKQVIFNKNYDDKAFYLHRLAVKQNAKGKGVAQKLLNFCENFALENHKASLRADTHSKNFPMNSLFKKLDFNFCGNFDIPNYQDPFLAYEKILNQKAF | not soluble
9 | MAHHHHHHMLSIRKCNIYDLLSMQQCNSINLPENYNLRYYFYHALSWPYLSQIAEDVNGKVCGYSLGKLEEDNEYKGHLTSVAVLKTYRKLKLAFYLILQTHQHLKDIYRANNICLHVRVSNNAALNLYYNLLNYKVNGIETQYYGNKENAYLMEHVFAR | not soluble
10 | MGSDKIHHHHHHMQDLLSQDEIDALLHGVDDGDIDTYEETDDTGVKNYDLASQDRIVRGRMPTLEMINERFARYTRISLFNLLRRNADVSTGGVQIMKFGEYIHTLYVPTSLNLCKVRPLRGTSLFVLDAKLVFKLVDNFFGGEGRHAKIEGREFTPTETRIVQMVLNQVFHDMKEAWHAVLQVEFEYLSSEVNPAMANIVSPSEVVVVSTFHIELDGGGGELHFALPYSMIEPIRDVLDAGVQSDIDDVDERWVNALQEDIKEVNVPINTTVCRRRISLRDIARMKAGDVIPVEIPEHLTVTANGIPIYKATLGTRDGKLALRIHDRAKLPKVKKQLKVGRNG | not soluble
11 | VDYKTVRCHFGDVELTKWITITDGFTVFSGADYDPELKEIGGKDGSIFIGTKTKHKVIKVPFWVKYNTIEDYDALQLALSSKKPKMLMFSHIPGRYYLAVQVGDLNFKEIKMNGFGEITFIVADAYAHSTSYRRIKDYTQDGNKMTFKIKNNGTAPAFPIFRIKHLGENGYIGITNETGAFAVGSPEEEDGTIVHRNETLFDYSKAIAQALEGAPNVAKLNYMPPTFDSELKRMRLDNILGSGKGGEYVAIGARGTTPGYGEHVGTRTFIINPDSNGEYTLNEHLWWKQIFIATAQDQKGFLKLCVTGENDEFLYGIETYKRKNGFETEYNFFALDDDGVGWRFYKQFEFQADRNYHNPFSMNRSRAVEIFREEDKFRIYFNGAHHHVTVPSLKGKKSRKIHLAMGTCSDSSKYINYNLFEKVNFEKMGVSHYNNIVNKYQPGDEVIINFENDTVSTKDIDSIQDVVLGSKMISIPPGESELVVHLSSWVA | not soluble
12 | SALTIFSVKDPQNSLWHSTNAEEIQQQLNAKGVRFERWQADRDLGAAPTAETVIAAYQHAIDKLVAEKGYQSWDVISLRADNPQKEALREKFLNEHTHGEDEVRFFVEGAGLFCLHIGDEVFQVLCEKNDLISVPAHTPHWFDMGSEPNFTAIRIFDNPEGWIAQFTGDDIASAYPRLA | soluble
13 | MGSDKIHHHHHHMREGSIVKLESLINQKYSNLNQTEKEILAFIIENRDFVRKASLSEVAEKSLFSKSAIFRCCKKIGLTGFSQLRYVLTDEKDSEQDSLISVDYLAQTVKSMLWTVNQFKSTNADDIYATLAAAGTIYIYSTGWQQQIMAQQLQRDLYLIGKFAFVFPTGHDEMQLSSTKIKPGDAVIVISYKGMNATIVQLVNNLKLNGVRIVSFTSFRQNRLAQAANFNLYYDIINKTVGIERKTERFFANLTLLIDIFSMGFANYLVAKEERDHEHGEYGQRKSK | not soluble
